Assay results as given in paper PMC3572265 (Pediatric diabetes, 2012).

Tests used:
[1] = plasma insulin pharmacokinetics during euglycemic clamp; assay type: in vivo, human; settings: Without InsuPatch activation, 0.2 unit/kg s.c. bolus, mean±SEM
[2] = tested on: adolescents with type 1 diabetes; assay: euglycemic clamp, pharmacodynamics; assay type: in vivo, human; settings: difference with vs without InsuPatch activation; 0.2 u/kg bolus

Substance: aspart insulin
- time to reach maximum increments in plasma insulin [1]: 67 ± 10 min
- TGIRmax earlier with IP activation than without [2]: 35 min
